Assay results reported in article PMC9943647, “Structures of pMV158 replication initiator RepB with and without DNA reveal a flexible dual-function protein” (Nucleic Acids Research, 2023).

Assays:
[1] = biological target: the molecule itself; assay: crystal structure; full-length RepB without DNA; hanging drop, 100 mM Na/K phosphate pH 6.2, 200 mM NaCl, 10% PEG 8000; space group P21, 2.77 A
[2] = biological target: T1, RepB OBD (origin binding domain), wt (Streptococcus plasmid pMV158, UniProt P13921 1-131); assay: EMSA; complex half-life <10 s; EMSA: 20 mM Tris-HCl pH 8.0, 5 mM DTT, 300 mM NaCl, 20 nM DNA, 20 min 25 C; footprinting same buffer; SPR: 10 mM HEPES pH 7.4, 150 mM NaCl, 3 mM EDTA, 0.005% P20; settings: protein: recombinant; tags: none; label: 5'-Cy5 (top) for EMSA; 5'-biotin for SPR; blunt
T1 sequence: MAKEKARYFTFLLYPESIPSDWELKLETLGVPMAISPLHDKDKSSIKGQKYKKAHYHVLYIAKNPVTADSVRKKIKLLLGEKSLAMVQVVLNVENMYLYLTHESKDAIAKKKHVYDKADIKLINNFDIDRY

[3] = biological target: T1, RepB OBD (origin binding domain), wt; assay: SPR; HBS-EP pH 7.4, 150 mM NaCl; Results text names 1DDR, but Methods, Table S1 and Fig 3 legend name DDRC; EMSA: 20 mM Tris-HCl pH 8.0, 5 mM DTT, 300 mM NaCl, 20 nM DNA, 20 min 25 C; footprinting same buffer; SPR: 10 mM HEPES pH 7.4, 150 mM NaCl, 3 mM EDTA, 0.005% P20; settings: protein: recombinant; tags: none; label: 5'-Cy5 (top) for EMSA; 5'-biotin for SPR; blunt
[4] = biological target: T1, RepB OBD (origin binding domain), wt; assay: EMSA; EMSA: 20 mM Tris-HCl pH 8.0, 5 mM DTT, 300 mM NaCl, 20 nM DNA, 20 min 25 C; footprinting same buffer; SPR: 10 mM HEPES pH 7.4, 150 mM NaCl, 3 mM EDTA, 0.005% P20; settings: protein: recombinant; tags: none; label: 5'-Cy5 (top); blunt
[5] = biological target: T1, RepB OBD (origin binding domain), wt; assay: EMSA; per DDR site, independent binding, complexes C1-C3; Kd ~0.8 uM; EMSA: 20 mM Tris-HCl pH 8.0, 5 mM DTT, 300 mM NaCl, 20 nM DNA, 20 min 25 C; footprinting same buffer; SPR: 10 mM HEPES pH 7.4, 150 mM NaCl, 3 mM EDTA, 0.005% P20; settings: protein: recombinant; tags: none; label: 5'-Cy5 (top) for EMSA; 32P at both 5' ends for footprinting; blunt
OBD E4A = OBD E4A (Streptococcus plasmid pMV158, UniProt P13921 1-131, E4A); assay: EMSA; EMSA: 20 mM Tris-HCl pH 8.0, 5 mM DTT, 300 mM NaCl, 20 nM DNA, 20 min 25 C; footprinting same buffer; SPR: 10 mM HEPES pH 7.4, 150 mM NaCl, 3 mM EDTA, 0.005% P20; settings: protein: recombinant; label: 5'-Cy5 (top); blunt
OBD K76A = OBD K76A (Streptococcus plasmid pMV158, UniProt P13921 1-131, K76A); assay: as above; settings: protein: recombinant; label: 5'-Cy5 (top); blunt
OBD R72A = OBD R72A (Streptococcus plasmid pMV158, UniProt P13921 1-131, R72A); assay: as above; settings: protein: recombinant; label: 5'-Cy5 (top); blunt
OBD K5A = OBD K5A (Streptococcus plasmid pMV158, UniProt P13921 1-131, K5A); assay: as above; settings: protein: recombinant; label: 5'-Cy5 (top); blunt
OBD triple mutant = OBD triple mutant (Streptococcus plasmid pMV158, UniProt P13921 1-131, K3A;E4A;K5A); assay: as above; settings: protein: recombinant; label: 5'-Cy5 (top); blunt
OBD quadruple mutant = OBD quadruple mutant (Streptococcus plasmid pMV158, UniProt P13921 1-131, R72A;K73A;K74A;K76A); assay: as above; settings: protein: recombinant; label: 5'-Cy5 (top); blunt
[6] = biological target: T1, RepB OBD (origin binding domain), wt; assay: SPR; HBS-EP pH 7.4, 150 mM NaCl; specific DNA is 1DDR in text, DDRC in Fig 3; EMSA: 20 mM Tris-HCl pH 8.0, 5 mM DTT, 300 mM NaCl, 20 nM DNA, 20 min 25 C; footprinting same buffer; SPR: 10 mM HEPES pH 7.4, 150 mM NaCl, 3 mM EDTA, 0.005% P20; settings: protein: recombinant; tags: none; label: 5'-Cy5 (top) for EMSA; 5'-biotin for SPR; blunt

B1: RepB, replication initiation protein of plasmid pMV158 (full-length hexamer) (natural protein, streptococcal plasmid pMV158, UniProt P13921 1-210, looked up)
chain: MAKEKARYFTFLLYPESIPSDWELKLETLGVPMAISPLHDKDKSSIKGQKYKKAHYHVLYIAKNPVTADSVRKKIKLLLGEKSLAMVQVVLNVENMYLYLTHESKDAIAKKKHVYDKADIKLINNFDIDRYVTLDVEEKTELFNVVVSLIRAYTLQNIFDLYDFIDENGETYGLTINLVNEVIAGKTGFMKLLFDGAYQRSKRGTKNEER
notes: RepB, replication initiator (HUH endonuclease) of the streptococcal plasmid pMV158; Crystallised without DNA; a phosphate sits in each active site instead of Mn2+; also called RepB6; full-length RepB
[1]
  stoichiometry N: 6

B2: DDRC (dsDNA)
DNA 1: CTTTTCGGCGACTTTTCGG
DNA 2: CCGAAAAGTCGCCGAAAAG
[2]
  Kd: ~1000 nM
[3]
  Kd: 220 ± 10 nM

B3: DDRR (dsDNA)
DNA 1: CTTTTCGGCGACTTTTTAG
DNA 2: CTAAAAAGTCGCCGAAAAG
[4]
  Kd: ~1000 nM

B4: DDRL (dsDNA)
DNA 1: AATCTCGGCGACTTTTCGG
DNA 2: CCGAAAAGTCGCCGAGATT
[4]
  Kd: ~1000 nM

B5: 3DDR (dsDNA)
DNA 1: AATCTCGGCGACTTTTCGGCGACTTTTCGGCGACTTTTTAGA
DNA 2: TCTAAAAAGTCGCCGAAAAGTCGCCGAAAAGTCGCCGAGATT
[5]
  Ka: 1.2 ± 0.4 µM⁻¹

B6: 1DDR (dsDNA)
DNA 1: AATCTCGGCGACTTTTTAGA
DNA 2: TCTAAAAAGTCGCCGAGATT
[4]
  Kd: 1100 ± 100 nM
OBD E4A
  Kd: 600 ± 100 nM
OBD K76A
  Kd: 5500 ± 700 nM
OBD R72A
  Kd: 1700 ± 200 nM
OBD K5A
  Kd: 1800 ± 200 nM
OBD triple mutant
  Kd: 1100 ± 100 nM
OBD quadruple mutant
  binding result: no binding

B7: NS (dsDNA)
DNA 1: CGGGTCGGTAATTGGGTTT
DNA 2: AAACCCAATTACCGACCCG
[6]
  binding signal: ~15 fold lower affinity than specific DNA
